Data published in patent US20180155451A1 (published 2018).

T1: FcγRIIa R (human FcγRIIa, allotype R, Arg at position 131), extracellular domain with C-terminal His tag (human, UniProt P12318 34-217)
T1 construct: extracellular domain; expressed in FreeStyle293 cells; analyte in Biacore; also called 2aR; FcgRIIa R
T1 sequence (looked up): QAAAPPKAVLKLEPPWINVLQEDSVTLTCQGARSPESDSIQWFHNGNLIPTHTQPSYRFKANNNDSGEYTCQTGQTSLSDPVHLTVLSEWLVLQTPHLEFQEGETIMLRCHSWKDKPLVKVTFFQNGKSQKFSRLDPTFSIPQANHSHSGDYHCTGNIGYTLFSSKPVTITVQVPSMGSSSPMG


What follows are binders tested against T1, FcγRIIa R (human FcγRIIa, allotype R, …) (assay: SPR (Biacore), relative binding vs GpH7-B3/GpL16-k0).
Protocol: Analysis of interaction between objective antibody and the FcγR was carried out using Biacore T100 (GE Healthcare). HBS-EP+ (GE Healthcare) was used as the running buffer, and the measurement temperature was set to 25° C. Chips produced by immobilizing the antigen peptide by the amine coupling method to a Series S Sencor Chip CM5 (GE Healthcare), or alternatively, chips produced by allowing preliminarily biotinylated antigen peptides to interact with and immobilize onto a Series S Sensor Chip SA (certified) (GE Healthcare) were used. Antibodies of interest were captured onto an antigen peptide-immobilized chip, and allowed to interact to each FcγR diluted with running buffer. To regenerate and repeatedly use the chip, the antibodies captured on the chip were washed off by reacting 10 mM glycine-HCl, pH 1.5.
The FcγR-binding activity of each antibody was assessed primarily using as an indicator the FcγR-binding activity and dissociation constant for FcγR.

Binder | Ho/Con_2aR
GpH7-B3 variant Q295_06M/GpL16-k0 (antibody, human IgG1, kappa, homodimerized antibody, mutation in both H chains; also called Ho Ab) heavy: not shown light: DIVMTQSPLSLPVTPGEPASISCQASESLVHSNRNTYLHWYLQKPGQSPQLLIYKVSNRFSGVPDRFSGSGSGTDFTLKISRVEAEDVGVYYCSQNTHVPPTFGQGTKVEIERTVAAPSVFIFPPSDEQLKSGTASVVCLLNNFYPREAKVQWKVDNALQSGNSQESVTEQDSKDSTYSLSSTLTLSKADYEKHKVYACEVTHQGLSSPVTKSFNRGEC | 93.9 relative, control = 100
GpH7-B3 variant S267_09D/GpL16-k0 (antibody, human IgG1, kappa, homodimerized antibody, mutation in both H chains; also called Ho Ab) heavy: not shown light: DIVMTQSPLSLPVTPGEPASISCQASESLVHSNRNTYLHWYLQKPGQSPQLLIYKVSNRFSGVPDRFSGSGSGTDFTLKISRVEAEDVGVYYCSQNTHVPPTFGQGTKVEIERTVAAPSVFIFPPSDEQLKSGTASVVCLLNNFYPREAKVQWKVDNALQSGNSQESVTEQDSKDSTYSLSSTLTLSKADYEKHKVYACEVTHQGLSSPVTKSFNRGEC | 167 relative, control = 100
GpH7-B3 variant Q295_10E/GpL16-k0 (antibody, human IgG1, kappa, homodimerized antibody, mutation in both H chains; also called Ho Ab) heavy: not shown light: DIVMTQSPLSLPVTPGEPASISCQASESLVHSNRNTYLHWYLQKPGQSPQLLIYKVSNRFSGVPDRFSGSGSGTDFTLKISRVEAEDVGVYYCSQNTHVPPTFGQGTKVEIERTVAAPSVFIFPPSDEQLKSGTASVVCLLNNFYPREAKVQWKVDNALQSGNSQESVTEQDSKDSTYSLSSTLTLSKADYEKHKVYACEVTHQGLSSPVTKSFNRGEC | 99.2 relative, control = 100
GpH7-B3 variant S337_11K/GpL16-k0 (antibody, human IgG1, kappa, homodimerized antibody, mutation in both H chains; also called Ho Ab) heavy: not shown light: DIVMTQSPLSLPVTPGEPASISCQASESLVHSNRNTYLHWYLQKPGQSPQLLIYKVSNRFSGVPDRFSGSGSGTDFTLKISRVEAEDVGVYYCSQNTHVPPTFGQGTKVEIERTVAAPSVFIFPPSDEQLKSGTASVVCLLNNFYPREAKVQWKVDNALQSGNSQESVTEQDSKDSTYSLSSTLTLSKADYEKHKVYACEVTHQGLSSPVTKSFNRGEC | 94.6 relative, control = 100
GpH7-B3 variant S324_06M/GpL16-k0 (antibody, human IgG1, kappa, homodimerized antibody, mutation in both H chains; also called Ho Ab) heavy: not shown light: DIVMTQSPLSLPVTPGEPASISCQASESLVHSNRNTYLHWYLQKPGQSPQLLIYKVSNRFSGVPDRFSGSGSGTDFTLKISRVEAEDVGVYYCSQNTHVPPTFGQGTKVEIERTVAAPSVFIFPPSDEQLKSGTASVVCLLNNFYPREAKVQWKVDNALQSGNSQESVTEQDSKDSTYSLSSTLTLSKADYEKHKVYACEVTHQGLSSPVTKSFNRGEC | 118 relative, control = 100
GpH7-B3 variant S324_04F/GpL16-k0 (antibody, human IgG1, kappa, homodimerized antibody, mutation in both H chains; also called Ho Ab) heavy: not shown light: DIVMTQSPLSLPVTPGEPASISCQASESLVHSNRNTYLHWYLQKPGQSPQLLIYKVSNRFSGVPDRFSGSGSGTDFTLKISRVEAEDVGVYYCSQNTHVPPTFGQGTKVEIERTVAAPSVFIFPPSDEQLKSGTASVVCLLNNFYPREAKVQWKVDNALQSGNSQESVTEQDSKDSTYSLSSTLTLSKADYEKHKVYACEVTHQGLSSPVTKSFNRGEC | 101 relative, control = 100
GpH7-B3 variant S239_07I/GpL16-k0 (antibody, human IgG1, kappa, homodimerized antibody, mutation in both H chains; also called Ho Ab) heavy: not shown light: DIVMTQSPLSLPVTPGEPASISCQASESLVHSNRNTYLHWYLQKPGQSPQLLIYKVSNRFSGVPDRFSGSGSGTDFTLKISRVEAEDVGVYYCSQNTHVPPTFGQGTKVEIERTVAAPSVFIFPPSDEQLKSGTASVVCLLNNFYPREAKVQWKVDNALQSGNSQESVTEQDSKDSTYSLSSTLTLSKADYEKHKVYACEVTHQGLSSPVTKSFNRGEC | 85.3 relative, control = 100
GpH7-B3 variant S239_06M/GpL16-k0 (antibody, human IgG1, kappa, homodimerized antibody, mutation in both H chains; also called Ho Ab) heavy: not shown light: DIVMTQSPLSLPVTPGEPASISCQASESLVHSNRNTYLHWYLQKPGQSPQLLIYKVSNRFSGVPDRFSGSGSGTDFTLKISRVEAEDVGVYYCSQNTHVPPTFGQGTKVEIERTVAAPSVFIFPPSDEQLKSGTASVVCLLNNFYPREAKVQWKVDNALQSGNSQESVTEQDSKDSTYSLSSTLTLSKADYEKHKVYACEVTHQGLSSPVTKSFNRGEC | 82.9 relative, control = 100
GpH7-B3 variant S337_07I/GpL16-k0 (antibody, human IgG1, kappa, homodimerized antibody, mutation in both H chains; also called Ho Ab) heavy: not shown light: DIVMTQSPLSLPVTPGEPASISCQASESLVHSNRNTYLHWYLQKPGQSPQLLIYKVSNRFSGVPDRFSGSGSGTDFTLKISRVEAEDVGVYYCSQNTHVPPTFGQGTKVEIERTVAAPSVFIFPPSDEQLKSGTASVVCLLNNFYPREAKVQWKVDNALQSGNSQESVTEQDSKDSTYSLSSTLTLSKADYEKHKVYACEVTHQGLSSPVTKSFNRGEC | 103 relative, control = 100
GpH7-B3 variant S337_10E/GpL16-k0 (antibody, human IgG1, kappa, homodimerized antibody, mutation in both H chains; also called Ho Ab) heavy: not shown light: DIVMTQSPLSLPVTPGEPASISCQASESLVHSNRNTYLHWYLQKPGQSPQLLIYKVSNRFSGVPDRFSGSGSGTDFTLKISRVEAEDVGVYYCSQNTHVPPTFGQGTKVEIERTVAAPSVFIFPPSDEQLKSGTASVVCLLNNFYPREAKVQWKVDNALQSGNSQESVTEQDSKDSTYSLSSTLTLSKADYEKHKVYACEVTHQGLSSPVTKSFNRGEC | 110 relative, control = 100

Second part, the binder after the results:

Ho/Con_2aR | Binder
99.4 relative, control = 100 | GpH7-B3 variant S337_08L/GpL16-k0 (antibody, human IgG1, kappa, homodimerized antibody, mutation in both H chains; also called Ho Ab) heavy: not shown light: DIVMTQSPLSLPVTPGEPASISCQASESLVHSNRNTYLHWYLQKPGQSPQLLIYKVSNRFSGVPDRFSGSGSGTDFTLKISRVEAEDVGVYYCSQNTHVPPTFGQGTKVEIERTVAAPSVFIFPPSDEQLKSGTASVVCLLNNFYPREAKVQWKVDNALQSGNSQESVTEQDSKDSTYSLSSTLTLSKADYEKHKVYACEVTHQGLSSPVTKSFNRGEC
101 relative, control = 100 | GpH7-B3 variant S298_08L/GpL16-k0 (antibody, human IgG1, kappa, homodimerized antibody, mutation in both H chains; also called Ho Ab) heavy: not shown light: DIVMTQSPLSLPVTPGEPASISCQASESLVHSNRNTYLHWYLQKPGQSPQLLIYKVSNRFSGVPDRFSGSGSGTDFTLKISRVEAEDVGVYYCSQNTHVPPTFGQGTKVEIERTVAAPSVFIFPPSDEQLKSGTASVVCLLNNFYPREAKVQWKVDNALQSGNSQESVTEQDSKDSTYSLSSTLTLSKADYEKHKVYACEVTHQGLSSPVTKSFNRGEC
102 relative, control = 100 | GpH7-B3 variant S298_06M/GpL16-k0 (antibody, human IgG1, kappa, homodimerized antibody, mutation in both H chains; also called Ho Ab) heavy: not shown light: DIVMTQSPLSLPVTPGEPASISCQASESLVHSNRNTYLHWYLQKPGQSPQLLIYKVSNRFSGVPDRFSGSGSGTDFTLKISRVEAEDVGVYYCSQNTHVPPTFGQGTKVEIERTVAAPSVFIFPPSDEQLKSGTASVVCLLNNFYPREAKVQWKVDNALQSGNSQESVTEQDSKDSTYSLSSTLTLSKADYEKHKVYACEVTHQGLSSPVTKSFNRGEC
101 relative, control = 100 | GpH7-B3 variant S337_06M/GpL16-k0 (antibody, human IgG1, kappa, homodimerized antibody, mutation in both H chains; also called Ho Ab) heavy: not shown light: DIVMTQSPLSLPVTPGEPASISCQASESLVHSNRNTYLHWYLQKPGQSPQLLIYKVSNRFSGVPDRFSGSGSGTDFTLKISRVEAEDVGVYYCSQNTHVPPTFGQGTKVEIERTVAAPSVFIFPPSDEQLKSGTASVVCLLNNFYPREAKVQWKVDNALQSGNSQESVTEQDSKDSTYSLSSTLTLSKADYEKHKVYACEVTHQGLSSPVTKSFNRGEC
98.3 relative, control = 100 | GpH7-B3 variant S337_04F/GpL16-k0 (antibody, human IgG1, kappa, homodimerized antibody, mutation in both H chains; also called Ho Ab) heavy: not shown light: DIVMTQSPLSLPVTPGEPASISCQASESLVHSNRNTYLHWYLQKPGQSPQLLIYKVSNRFSGVPDRFSGSGSGTDFTLKISRVEAEDVGVYYCSQNTHVPPTFGQGTKVEIERTVAAPSVFIFPPSDEQLKSGTASVVCLLNNFYPREAKVQWKVDNALQSGNSQESVTEQDSKDSTYSLSSTLTLSKADYEKHKVYACEVTHQGLSSPVTKSFNRGEC
102 relative, control = 100 | GpH7-B3 variant S337_03V/GpL16-k0 (antibody, human IgG1, kappa, homodimerized antibody, mutation in both H chains; also called Ho Ab) heavy: not shown light: DIVMTQSPLSLPVTPGEPASISCQASESLVHSNRNTYLHWYLQKPGQSPQLLIYKVSNRFSGVPDRFSGSGSGTDFTLKISRVEAEDVGVYYCSQNTHVPPTFGQGTKVEIERTVAAPSVFIFPPSDEQLKSGTASVVCLLNNFYPREAKVQWKVDNALQSGNSQESVTEQDSKDSTYSLSSTLTLSKADYEKHKVYACEVTHQGLSSPVTKSFNRGEC
114 relative, control = 100 | GpH7-B3 variant S337_09D/GpL16-k0 (antibody, human IgG1, kappa, homodimerized antibody, mutation in both H chains; also called Ho Ab) heavy: not shown light: DIVMTQSPLSLPVTPGEPASISCQASESLVHSNRNTYLHWYLQKPGQSPQLLIYKVSNRFSGVPDRFSGSGSGTDFTLKISRVEAEDVGVYYCSQNTHVPPTFGQGTKVEIERTVAAPSVFIFPPSDEQLKSGTASVVCLLNNFYPREAKVQWKVDNALQSGNSQESVTEQDSKDSTYSLSSTLTLSKADYEKHKVYACEVTHQGLSSPVTKSFNRGEC
92.3 relative, control = 100 | GpH7-B3 variant S239_14T/GpL16-k0 (antibody, human IgG1, kappa, homodimerized antibody, mutation in both H chains; also called Ho Ab) heavy: not shown light: DIVMTQSPLSLPVTPGEPASISCQASESLVHSNRNTYLHWYLQKPGQSPQLLIYKVSNRFSGVPDRFSGSGSGTDFTLKISRVEAEDVGVYYCSQNTHVPPTFGQGTKVEIERTVAAPSVFIFPPSDEQLKSGTASVVCLLNNFYPREAKVQWKVDNALQSGNSQESVTEQDSKDSTYSLSSTLTLSKADYEKHKVYACEVTHQGLSSPVTKSFNRGEC
110 relative, control = 100 | GpH7-B3 variant S267_19Q/GpL16-k0 (antibody, human IgG1, kappa, homodimerized antibody, mutation in both H chains; also called Ho Ab) heavy: not shown light: DIVMTQSPLSLPVTPGEPASISCQASESLVHSNRNTYLHWYLQKPGQSPQLLIYKVSNRFSGVPDRFSGSGSGTDFTLKISRVEAEDVGVYYCSQNTHVPPTFGQGTKVEIERTVAAPSVFIFPPSDEQLKSGTASVVCLLNNFYPREAKVQWKVDNALQSGNSQESVTEQDSKDSTYSLSSTLTLSKADYEKHKVYACEVTHQGLSSPVTKSFNRGEC
102 relative, control = 100 | GpH7-B3 variant S267_06M/GpL16-k0 (antibody, human IgG1, kappa, homodimerized antibody, mutation in both H chains; also called Ho Ab) heavy: not shown light: DIVMTQSPLSLPVTPGEPASISCQASESLVHSNRNTYLHWYLQKPGQSPQLLIYKVSNRFSGVPDRFSGSGSGTDFTLKISRVEAEDVGVYYCSQNTHVPPTFGQGTKVEIERTVAAPSVFIFPPSDEQLKSGTASVVCLLNNFYPREAKVQWKVDNALQSGNSQESVTEQDSKDSTYSLSSTLTLSKADYEKHKVYACEVTHQGLSSPVTKSFNRGEC
